# Reference: US9481899B2, “Methods and compositions for producing hydrocarbons” (priority 2008, dated 2016)
# Experiments:
# Type in all cases: cell-based
# E. coli MG1655 [1] = assay: Coexpression of decarbonylase and aldehyde-generating enzyme in E. coli, GC-MS of hydrocarbons; conditions: for Production of Alkanes and Alkenes: alkane/alkene biosynthetic polypeptide coexpressed in E. coli with the aldehyde biosynthetic polypeptide of the same table row; for fatty aldehyde decarbonylase activity in E. coli: cotransformed with S. elongatus PCC7942_1594 into E. coli MG1655, M9 minimal media, 37° C.
# Excerpt: Seven cyanobacteria, whose complete genome sequences are publicly available, were selected for verification and/or detection of alkane biosynthesis: Synechococcus elongatus PCC7942, Synechococcus elongatus PCC6301, Anabaena variabilis ATCC29413, Synechocystis sp. PCC6803, Nostoc punctiforme PCC73102, Gloeobacter violaceus ATCC 29082, and Prochlorococcus marinus CCMP1986. Only the first three cyanobacterial strains from this list had previously been reported to contain alkanes (Han et al., J. Am. Chem. Soc. 91:5156-5159 (1969); Fehler et al., Biochem. 9:418-422 (1970)). The strains were grown photoautotrophically in shake flasks in 100 mL of the appropriate media (listed in Table 8) for 3-7 days at 30° C. at a light intensity of approximately 3,500 lux. Cells were extracted for alkane detection as follows: cells from 1 mL culture volume were centrifuged for 1 min at 13,000 rpm, the cell pellets were resuspended in methanol, vortexed for 1 min and then sonicated for 30 min. After centrifugation for 3 min at 13,000 rpm, the supernatants were transferred to fresh vials and analyzed by GC-MS. The samples were analyzed on either 30 m DP-5 capillary column (0.25 mm internal diameter) or a 30 m high temperature DP-5 capillary column (0.25 mm internal diameter) using the following method.
# After a 1 μL splitless injection (inlet temperature held at 300° C.) onto the GC/MS column, the oven was held at 100° C. for 3 mins. The temperature was ramped up to 320° C. at a rate of 20° C./min. The oven was held at 320° C. for an additional 5 min. The flow rate of the carrier gas helium was 1.3 mL/min. The MS quadrapole scanned from 50 to 550 m/z. Retention times and fragmentation patterns of product peaks were compared with authentic references to confirm peak identity.
# (§1) The genomic DNA encoding Synechococcus elongatus PCC7942 orf1594 (YP_400611; putative aldehyde-generating enzyme) (SEQ ID NO:65) was amplified and cloned into the NcoI and EcoRI sites of vector OP-80 (pCL1920 derivative) under the control of the Ptrc promoter. The resulting construct (“OP80-PCC7942_1594”) was transformed into E. coli MG1655 and the cells were grown at 37° C. in M9 minimal media with 1% (w/v) glucose as carbon source and supplemented with 100 μg/mL spectinomycin. When the culture reached OD600 of 0.8-1.0, it was induced with 1 mM IPTG and cells were grown for an additional 18-20 h at 37° C. Cells from 0.5 mL of culture were extracted with 0.5 mL of ethyl acetate. After sonication for 60 min, the sample was centrifuged at 15,000 rpm for 5 min. The solvent layer was analyzed by GC-MS as described in Example 1.
# The genomic DNA encoding Synechococcus elongatus PCC7942 orf1593 (YP_400610; putative decarbonylase) (SEQ ID NO:1) was amplified and cloned into the NdeI and XhoI sites of vector OP-183 (pACYC derivative) under the control of the Ptrc promoter. The resulting construct was cotransformed with OP80-PCC7942_1594 into E. coli MG1655 and the cells were grown at 37° C. in M9 minimal media supplemented with 100 μg/mL spectinomycin and 100 μg/mL carbenicillin. The cells were cultured and extracted as in Example 3 and analyzed by GC-MS as described in Example 1. […]
# [2] = system: E. coli MG1655 ΔfadD lacZ::Ptrc-′tesA; assay: Decarbonylase expression in fatty aldehyde-producing E. coli strain expressing MSMEG_5739; conditions: coexpressed with M. smegmatis carboxylic acid reductase MSMEG_5739
# E. coli MG1655 [3] = assay: Heterologous expression of aldehyde-generating enzyme alone in E. coli, GC-MS of fatty aldehydes and fatty alcohols
# Protocol: as §1
# The genomic DNA encoding Cyanothece sp. ATCC51142 cce_1430 (YP_001802846; putative aldehyde-generating enzyme) (SEQ ID NO:69) was amplified and cloned into the NcoI and EcoRI sites of vector OP-80 (pCL1920 derivative) under the control of the Ptrc promoter. The resulting construct was transformed into E. coli MG1655 and the cells were grown at 37° C. in M9 minimal media with 1% (w/v) glucose as carbon source and supplemented with 100 μg/mL spectinomycin. The cells were cultured and extracted as in Example 3 and analyzed by GC-MS as described in Example 26.
# The genomic DNA encoding P. mariunus CCMP1986 PMM0533 (NP_892651; putative aldehyde-generating enzyme) (SEQ ID NO:71) and Prochlorococcus mariunus CCMP1986 PMM0532 (NP_892650; putative decarbonylase) (SEQ ID NO:19) were amplified and cloned into the NcoI and EcoRI sites of vector OP-80 and the NdeI and XhoI sites of vector OP-183, respectively. The resulting constructs were separately transformed and cotransformed into E. coli MG1655 and the cells were grown at 37° C. in M9 minimal media supplemented with 100 μg/mL spectinomycin and 100 μg/mL carbenicillin. The cells were cultured and extracted as in Example 3 and analyzed by GC-MS as described in Example 26.
# The genomic DNA encoding Synechocystis sp. PCC6803 sll0208 (NP_442147; putative fatty aldehyde decarbonylase) (SEQ ID NO:3) was synthesized and cloned into the NdeI and XhoI sites of vector OP-183 (pACYC derivative) under the control of the Ptrc promoter. The genomic DNA encoding Synechocystis sp. PCC6803 sll0209 (NP_442146; acyl-ACP reductase) (SEQ ID NO:67) was synthesized and cloned into the NcoI and EcoRI sites of vector OP-183 (pACYC derivative) under the control of the Ptrc promoter. The resulting constructs were cotransformed with into E. coli MG1655 ΔfadE lacZ::Ptrc ′tesA-fadD. […] The cells were cultured and extracted as in Example 3 and analyzed by GC-MS as described in Example 26.
# [4] = enzyme expressed alone in E. coli MG1655
Molecule,Production of Alkanes and Alkenes (E. coli MG1655 [1]),fatty aldehyde decarbonylase activity in E. coli (E. coli MG1655 [1]),conversion of fatty aldehydes provided by MSMEG_5739 to alkanes [2],production of fatty aldehydes and fatty alcohols (E. coli MG1655 [3]; [4]),production of fatty aldehydes and fatty alcohols (E. coli MG1655 [3]; enzyme expressed alone in E. coli MG1655 ΔfadE lacZ::Ptrc ′tesA-fadD (fatty acyl-CoA-producing))
"SEQ ID NO: 19: Prochlorococcus marinus CCMP1986 PMM0532, putative decarbonylase (protein, listed as Prochlorococcus marinus) MQTLESNKKTNLENSIDLPDFTTDSYKDAYSRINAIVIEGEQEAHDNYISLATLIPNELEELTKLAKMELKHKRGFTACGRNLGVQADMIFAKEFFSKLHGNFQVALSNGKTTTCLLIQAILIEAFAISAYHVYIRVADPFAKKITQGVVKDEYLHLNYGQEWLKENLATCKDELMEANKVNLPLIKKMLDQVSEDASVLAMDREELMEEFMIAYQDTLLEIGLDNREIARMAMAAIV",yes,active fatty aldehyde decarbonylase,converted fatty aldehydes provided by MSMEG_5739 to the corresponding alkanes,,
"PCC7942 orf1594: Synechococcus elongatus PCC7942 orf1594, putative aldehyde-generating enzyme, named Acyl-ACP reductase (protein, listed as Synechococcus elongatus) MFGLIGHLTSLEQARDVSRRMGYDEYADQGLEFWSSAPPQIVDEITVTSATGKVIHGRYIESCFLPEMLAARRFKTATRKVLNAMSHAQKHGIDISALGGFTSIIFENFDLASLRQVRDTTLEFERFTTGNTHTAYVICRQVEAAAKTLGIDITQATVAVVGATGDIGSAVCRWLDLKLGVGDLILTARNQERLDNLQAELGRGKILPLEAALPEADFIVWVASMPQGVVIDPATLKQPCVLIDGGYPKNLGSKVQGEGIYVLNGGVVEHCFDIDWQIMSAAEMARPERQMFACFAEAMLLEFEGWHTNFSWGRNQITIEKMEAIGEASVRHGFQPLALAI",,,,generates aldehydes in-vivo,
"sll0209: Synechocystis sp. PCC6803 sll0209, acyl-ACP reductase (protein, listed as Synechocystis sp.) MFGLIGHLTSLEHAQAVAEDLGYPEYANQGLDFWCSAPPQVVDNFQVKSVTGQVIEGKYVESCFLPEMLTQRRIKAAIRKILNAMALAQKVGLDITALGGFSSIVFEEFNLKQNNQVRNVELDFQRFTTGNTHTAYVICRQVESGAKQLGIDLSQATVAVCGATGDIGSAVCRWLDSKHQVKELLLIARNRQRLENLQEELGRGKIMDLETALPQADIIVWVASMPKGVEIAGEMLKKPCLIVDGGYPKNLDTRVKADGVHILKGGIVEHSLDITWEIMKIVEMDIPSRQMFACFAEAILLEFEGWRTNFSWGRNQISVNKMEAIGEASVKHGFCPLVAL",,,,,did not produce any fatty aldehydes or fatty alcohols
"PMM0533: P. mariunus CCMP1986 PMM0533, putative aldehyde-generating enzyme (protein, listed as Prochlorococcus marinus) MFGLIGHSTSFEDAKRKASLLGFDHIADGDLDVWCTAPPQLVENVEVKSAIGISIEGSYIDSCFVPEMLSRFKTARRKVLNAMELAQKKGINITALGGFTSIIFENFNLLQHKQIRNTSLEWERFTTGNTHTAWVICRQLEMNAPKIGIDLKSATVAVVGATGDIGSAVCRWLINKTGIGELLLVARQKEPLDSLQKELDGGTIKNLDEALPEADIVVWVASMPKTMEIDANNLKQPCLMIDGGYPKNLDEKFQGNNIHVVKGGIVRFFNDIGWNMMELAEMQNPQREMFACFAEAMILEFEKCHTNFSWGRNNISLEKMEFIGAASVKHGFSAIGLDKHPKVLAV",,,,did not produce any fatty aldehydes or fatty alcohols,
"ATCC51142 cce_1430: Cyanothece sp. ATCC51142 cce_1430, putative aldehyde-generating enzyme (protein, listed as Cyanothece sp.) MFGLIGHLTSLEHAHSVADAFGYGPYATQGLDLWCSAPPQFVEHFHVTSITGQTIEGKYIESAFLPEMLIKRRIKAAIRKILNAMAFAQKNNLNITALGGFSSIIFEEFNLKENRQVRNVSLEFDRFTTGNTHTAYIICRQVEQASAKLGIDLSQATVAICGATGDIGSAVCRWLDRKTDTQELFLIARNKERLQRLQDELGRGKIMGLEEALPEADIIVWVASMPKGVEINAETLKKPCLIIDGGYPKNLDTKIKHPDVHILKGGIVEHSLDIDWKIMETVNMDVPSRQMFACFAEAILLEFEQWHTNFSWGRNQITVTKMEQIGEASVKHGLQPLLSW",,,,generates aldehydes in-vivo,
"SEQ ID NO: 53: Synechococcus sp. RS9917 RS9917_12945, putative decarbonylase, codon optimized for E. coli (protein, listed as Synechococcus sp.) MTQLDFASAAYREAYSRINGVVIVGEGLANRHFQMLARRIPADRDELQRLGRMEGDHASAFVGCGRNLGVVADLPLARRLFQPLHDLFKRHDHDGNRAECLVIQGLIVECFAVAAYRHYLPVADAYARPITAAVMNDESEHLDYAETWLQRHFDQVKARVSAVVVEALPLTLAMLQSLAADMRQIGMDPVETLASFSELFREALESVGFEAVEARRLLMRAAARMV",yes,active fatty aldehyde decarbonylase,converted fatty aldehydes provided by MSMEG_5739 to the corresponding alkanes,,
"SEQ ID NO: 52: Synechococcus sp. RS9917 RS9917_09941, putative decarbonylase, codon optimized for E. coli (protein, listed as Synechococcus sp.) MPTLETSEVAVLEDSMASGSRLPDFTSEAYKDAYSRINAIVIEGEQEAHDNYIALGTLIPEQKDELARLARMEMKHMKGFTSCGRNLGVEADLPFAKEFFAPLHGNFQAALQEGKVVTCLLIQALLIEAFAISAYHIYIPVADPFARKITEGVVKDEYTHLNYGQEWLKANFEASKDELMEANKANLPLIRSMLEQVAADAAVLQMEKEDLIEDFLIAYQEALCEIGFSSRDIARMAAAALAV",yes,active fatty aldehyde decarbonylase,converted fatty aldehydes provided by MSMEG_5739 to the corresponding alkanes,,
